Test results reported in US20070027086A1.

Assays:
[1] = target: human MC4-receptor (human) (UniProt P32245); experiment: competition with [^125I]NDP-MSH on COS cells expressing human MC4 receptor; Ki by Cheng-Prusoff
[2] = target: human MC5-receptor (human) (UniProt P33032); experiment: competition with [^125I]NDP-MSH on COS cells expressing human MC5 receptor; Ki by Cheng-Prusoff
[3] = target: human MC4-receptor (human) (UniProt P32245); experiment: ratio of Ki values, competition with [^125I]NDP-MSH on COS-1 cells expressing human MC receptors
[4] = target: human MC5-receptor (human) (UniProt P33032); experiment: as above

Chain of human MC4-receptor (human) (P32245 whole entry): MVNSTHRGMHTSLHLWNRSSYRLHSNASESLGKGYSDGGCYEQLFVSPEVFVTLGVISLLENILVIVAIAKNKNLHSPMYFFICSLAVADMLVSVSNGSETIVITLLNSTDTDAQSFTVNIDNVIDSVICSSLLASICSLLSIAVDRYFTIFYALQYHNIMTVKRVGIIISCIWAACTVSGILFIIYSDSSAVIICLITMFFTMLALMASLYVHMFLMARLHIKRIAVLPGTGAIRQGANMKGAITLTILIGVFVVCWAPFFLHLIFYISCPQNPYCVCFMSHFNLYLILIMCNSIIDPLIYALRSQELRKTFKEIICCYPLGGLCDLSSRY
Chain of human MC5-receptor (human) (P33032 whole entry): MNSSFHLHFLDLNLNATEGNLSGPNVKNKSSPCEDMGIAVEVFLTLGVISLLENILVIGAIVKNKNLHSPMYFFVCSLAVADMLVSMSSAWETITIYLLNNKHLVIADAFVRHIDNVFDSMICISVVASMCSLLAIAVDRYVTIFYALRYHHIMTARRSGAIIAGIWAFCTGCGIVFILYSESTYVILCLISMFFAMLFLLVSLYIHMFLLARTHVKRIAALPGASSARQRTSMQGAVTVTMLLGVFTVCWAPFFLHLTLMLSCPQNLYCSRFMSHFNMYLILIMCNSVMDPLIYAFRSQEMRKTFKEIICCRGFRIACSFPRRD

With “MS05 (Ser-Ser-Ile-Ile-Ser-His-Phe-Arg-Trp-Gly-Lys-Pro-Val-NH2) (peptide)” the Ki [1] was > 50 µM, the Ki [2] was > 50 µM and the fold lower affinity than for the MC1-receptor [3] was > 65000 fold. For the same substance, the fold lower affinity than for the MC1-receptor [4] was > 65000 fold.
